B1: VH(DOM1h-10-27)-scArc fusion protein (pIE2aAVH(DOM1h-10-27)) (other)
chain: MAEVQLLESGGGLVQPGGSLRLSCAASGFTFEWYWMGWVRQAPGKGLEWVSAISGSGGSTYYADSVKGRFTISRDNSKNTLYLQMNSLRAEDAAVYYCAKVKLGGGPNFGYRGQGTLVTVSSAAGGGSGGGHMKGMSKMPQFNLRWPREVLDLVRKVAEENGRSVNSEIYQRVMESFKKEGRIGAGGGSGGGSGGGSGGGHMKGMSKMPQFNLRWPREVLDLVRKVAEENGRSVNSEIYQRVMESFKKEGRIGAGGGSGGGSYPYDVPDYA
notes: Human heavy chain VH domain antibody against human TNF receptor fused to scArc; in vitro translated, assayed as protein-DNA complex (one Arc operator), with the stabilising 3F10 mAb; also called VH(DOM1h-10-27) domain antibody fusion construct with scArc
B2: anti-β-galactosidase Vκ domain antibody clone E5 (other)
VL: DIQMTQSPSSLSASVGDRVTITCRASQSVSSYLNWYQQKPGKAPKLLIYLASRLQSGVPSRFSGSGSGTDFTLTISSLQPEDFATYYCQQNWWLPPTFGQGTKVEIK
notes: The Vκ single domain itself; also called Vκ(E5); Vk(E5)
B3: HA-tagged scArc repressor expressed from pIE2aA / pIE2a^2A-derived genetic elements (other)
chain: MGSTGGAAAGSGGGSGGGHMKGMSKMPQFNLRWPREVLDLVRKVAEENGRSVNSEIYQRVMESFKKEGRIGAGGGSGGGSGGGSGGGHMKGMSKMPQFNLRWPREVLDLVRKVAEENGRSVNSEIYQRVMESFKKEGRIGAGGGSGGGSYPYDVPDYA
notes: The same protein is encoded by pIE2A, pIE2aA and pIE2a^2A (they differ in the number of operators on the DNA); also called scArc-HA; pIE2-encoded scArc-HA
B4: HA-tagged scArc repressor expressed from pIE3A / pIE3aA-derived genetic elements (other)
chain: MSGSGGGSGGGHMKGMSKMPQFNLRWPREVLDLVRKVAEENGRSVNSEIYQRVMESFKKEGRIGAGGGSGGGSGGGSGGGHMKGMSKMPQFNLRWPREVLDLVRKVAEENGRSVNSEIYQRVMESFKKEGRIGAGGGSGGGSMGSTGGAAARSYPYDVPDYA
notes: In vitro translated; differs from the pIE2 form in that the MCS-encoded region lies between scArc and the HA tag; also called pIE3-derived scArc-HA; scArc-HA
B5: scArc expressed from pIE7aA, pIE7a2A, pIE7a3A or pIE7a4A (other)
chain: MGSTGGAAAKEAAAKEAAAKEAAAKELAAKEAAAKEAAAKEAAAKELAAGSGGGSGGGHMKGMSKMPQFNLRWPREVLDLVRKVAEENGRSVNSEIYQRVMESFKKEGRIGAGGGSGGGSGGGSGGGHMKGMSKMPQFNLRWPREVLDLVRKVAEENGRSVNSEIYQRVMESFKKEGRIGAGGGSGGGSYPYDVPDYA
notes: in vitro translated in the presence of 3F10 αHA mAb; also called scArc complex with DNA

Tests used:
[1] = target: T1, BSA (Sigma), biotinylated (UniProt P02769 25-607); assay: protein-DNA complex captured on biotinylated protein in streptavidin-coated PCR tubes; co-captured DNA detected by PCR and gel
T1 construct: Negative control surface
T1 sequence (P02769 25-607 limits assumed): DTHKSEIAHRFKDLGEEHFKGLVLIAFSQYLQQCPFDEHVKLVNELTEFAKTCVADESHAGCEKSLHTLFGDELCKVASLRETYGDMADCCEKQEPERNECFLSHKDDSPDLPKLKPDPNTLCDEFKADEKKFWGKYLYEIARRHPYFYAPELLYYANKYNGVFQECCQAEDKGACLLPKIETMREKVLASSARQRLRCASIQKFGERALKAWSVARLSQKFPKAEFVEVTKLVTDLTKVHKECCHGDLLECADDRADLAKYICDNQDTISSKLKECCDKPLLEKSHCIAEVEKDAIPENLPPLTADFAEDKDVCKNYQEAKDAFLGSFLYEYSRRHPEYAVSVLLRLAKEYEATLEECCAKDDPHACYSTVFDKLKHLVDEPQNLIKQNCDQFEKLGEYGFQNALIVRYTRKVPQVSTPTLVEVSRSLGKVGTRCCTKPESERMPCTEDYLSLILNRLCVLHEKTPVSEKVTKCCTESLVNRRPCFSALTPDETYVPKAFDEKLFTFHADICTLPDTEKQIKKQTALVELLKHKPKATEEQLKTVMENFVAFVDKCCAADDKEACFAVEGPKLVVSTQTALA

[2] = target: T2, β-galactosidase (Sigma), biotinylated (Escherichia coli (strain K12), UniProt P00722 2-1024 = β-galactosidase, Biotinylated (sites not given); the native enzyme is a homotetramer, and one chain is given); assay: method not stated
T2 construct: Immobilised on streptavidin-coated tubes or wells
T2 sequence (P00722 2-1024 limits assumed): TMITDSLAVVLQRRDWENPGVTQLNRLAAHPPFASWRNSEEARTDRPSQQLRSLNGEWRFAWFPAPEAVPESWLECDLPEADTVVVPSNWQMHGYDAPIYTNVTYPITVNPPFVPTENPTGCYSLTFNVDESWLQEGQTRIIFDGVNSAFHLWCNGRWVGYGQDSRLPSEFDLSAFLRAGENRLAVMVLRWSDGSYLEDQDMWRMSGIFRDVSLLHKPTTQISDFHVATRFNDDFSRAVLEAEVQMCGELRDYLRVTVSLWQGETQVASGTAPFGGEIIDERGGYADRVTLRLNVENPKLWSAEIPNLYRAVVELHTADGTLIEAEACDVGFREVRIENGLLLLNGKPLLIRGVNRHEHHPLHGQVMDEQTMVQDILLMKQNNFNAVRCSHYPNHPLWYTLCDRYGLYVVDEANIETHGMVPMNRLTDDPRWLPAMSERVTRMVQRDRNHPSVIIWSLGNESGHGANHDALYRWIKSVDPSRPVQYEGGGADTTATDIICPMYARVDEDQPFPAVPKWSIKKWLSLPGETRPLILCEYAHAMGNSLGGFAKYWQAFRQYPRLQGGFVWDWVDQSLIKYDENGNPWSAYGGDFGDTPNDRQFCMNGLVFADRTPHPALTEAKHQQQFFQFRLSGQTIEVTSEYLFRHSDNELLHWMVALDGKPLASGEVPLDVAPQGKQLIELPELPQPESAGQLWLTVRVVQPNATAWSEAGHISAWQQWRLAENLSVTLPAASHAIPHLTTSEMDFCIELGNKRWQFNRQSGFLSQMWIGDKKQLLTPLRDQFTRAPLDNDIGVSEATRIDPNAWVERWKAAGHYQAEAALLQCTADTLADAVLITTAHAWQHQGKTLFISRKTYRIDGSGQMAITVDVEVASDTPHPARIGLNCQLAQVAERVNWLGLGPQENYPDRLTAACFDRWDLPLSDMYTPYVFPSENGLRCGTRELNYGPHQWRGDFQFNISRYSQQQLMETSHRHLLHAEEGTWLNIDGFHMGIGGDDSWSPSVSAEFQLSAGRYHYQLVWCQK

[3] = target: T3, protein A (Sigma), biotinylated (UniProt P38507 37-477); assay: protein-DNA complex captured on biotinylated protein in streptavidin-coated PCR tubes; co-captured DNA detected by PCR and gel
T3 construct: Immobilised on streptavidin-coated tubes; also called pA

[4] = target: T4, human TNF receptor, biotinylated (human, UniProt P19438 30-211, limits assumed, biotinylated); assay: as above
T4 construct: Immobilised on streptavidin-coated tubes
T4 sequence (looked up): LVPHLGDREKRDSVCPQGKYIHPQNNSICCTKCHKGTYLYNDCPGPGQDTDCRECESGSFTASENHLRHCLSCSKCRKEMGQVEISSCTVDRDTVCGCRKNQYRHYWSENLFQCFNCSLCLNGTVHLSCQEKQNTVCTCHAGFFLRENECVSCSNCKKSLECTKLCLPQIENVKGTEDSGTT

Row | Binder | binding result [1] | Kd [2] | binding result [3] | binding result [4]
1 | B1 | no binding | – | – | –
2 | B2 | – | > 1000 nM | – | –
3 | B3 | no binding | – | no binding | no binding
4 | B4 | no binding | – | – | –
5 | B5 | no binding | – | no binding | –

— US20090176209A1 (DOMANTIS, published 2009)
